Data on one molecule can be found in patent US20160311882A1, “Novel Compound for Treatment of Severe Hypoglycemia” (ELI LILLY AND COMPANY, priority 2013, published 2016).

Test [1] deals with T1, human glucose-dependent insulinotropic peptide receptor (GIP-R) (human, UniProt P48546 22-466).
T1 construct: whole, on cells; Assay used crude plasma membranes of the expressing CHO-S cells; also called human GIP-R; hGIP-R
T1 sequence (looked up): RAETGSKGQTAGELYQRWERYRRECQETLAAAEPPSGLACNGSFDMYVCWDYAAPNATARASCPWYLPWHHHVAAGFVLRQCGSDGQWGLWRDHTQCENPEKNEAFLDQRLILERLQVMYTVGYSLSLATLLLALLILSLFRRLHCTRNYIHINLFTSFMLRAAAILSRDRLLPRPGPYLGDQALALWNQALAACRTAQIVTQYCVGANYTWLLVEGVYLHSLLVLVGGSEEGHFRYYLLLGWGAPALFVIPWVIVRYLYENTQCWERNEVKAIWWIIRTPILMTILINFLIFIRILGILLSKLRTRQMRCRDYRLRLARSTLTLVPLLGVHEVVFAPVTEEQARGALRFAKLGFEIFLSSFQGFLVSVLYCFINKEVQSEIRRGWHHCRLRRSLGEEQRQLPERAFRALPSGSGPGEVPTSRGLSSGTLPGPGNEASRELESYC
Kind of test: SPA competition against radioiodinated GIP on CHO-S human GIP-R membranes, Cheng-Prusoff.

Test [2] concerns the target T2, human glucagon receptor (hGR) (human, UniProt P47871 26-477). The test can be described thus: cell-based or functional assay.
The target of test [3] is T3, human glucagon-like peptide 1 receptor (hGLP-1R) (human, UniProt P43220 24-463).
T3 construct: whole, on cells; Assay used crude plasma membranes of the expressing 293HEK cells
The test can be described thus: SPA competition against 125I-labelled GLP-1 amide on 293HEK hGLP-1R membranes, Cheng-Prusoff.

The target of test [4] is T4, mouse glucagon receptor (mGR) (mouse, UniProt Q61606 27-485).
T4 construct: whole, on cells; Assay used crude plasma membranes of the expressing 293HEK cells
Kind of test: SPA competition against 125I-labelled glucagon on 293HEK mGR membranes, Cheng-Prusoff.

Test [5] addresses T2, human glucagon receptor (hGR). The test can be described thus: SPA competition against 125I-labelled glucagon on 293HEK hGR membranes, Cheng-Prusoff. Here is the method: Plates are sealed, mixed end over end, and read with a MicroBeta® scintillation counter after 12 hours of settling time at room temperature.

Non-standard residues stand in square brackets, D forms with d. No end group written: not given here. Aib = CC(C)(N)C(=O)O

T2 sequence (P47871 26-477): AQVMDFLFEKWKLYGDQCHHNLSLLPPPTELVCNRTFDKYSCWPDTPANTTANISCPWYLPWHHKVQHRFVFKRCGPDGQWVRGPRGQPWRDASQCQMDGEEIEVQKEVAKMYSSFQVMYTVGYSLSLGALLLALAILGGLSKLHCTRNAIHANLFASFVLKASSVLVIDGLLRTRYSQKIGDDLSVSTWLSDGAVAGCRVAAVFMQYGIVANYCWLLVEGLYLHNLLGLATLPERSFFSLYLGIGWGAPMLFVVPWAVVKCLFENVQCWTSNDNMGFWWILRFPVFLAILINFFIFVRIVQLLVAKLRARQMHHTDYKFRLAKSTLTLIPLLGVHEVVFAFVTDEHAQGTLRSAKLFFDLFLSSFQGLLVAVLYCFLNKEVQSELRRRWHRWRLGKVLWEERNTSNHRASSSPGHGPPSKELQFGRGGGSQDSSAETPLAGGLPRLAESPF
T4 sequence (Q61606 27-485): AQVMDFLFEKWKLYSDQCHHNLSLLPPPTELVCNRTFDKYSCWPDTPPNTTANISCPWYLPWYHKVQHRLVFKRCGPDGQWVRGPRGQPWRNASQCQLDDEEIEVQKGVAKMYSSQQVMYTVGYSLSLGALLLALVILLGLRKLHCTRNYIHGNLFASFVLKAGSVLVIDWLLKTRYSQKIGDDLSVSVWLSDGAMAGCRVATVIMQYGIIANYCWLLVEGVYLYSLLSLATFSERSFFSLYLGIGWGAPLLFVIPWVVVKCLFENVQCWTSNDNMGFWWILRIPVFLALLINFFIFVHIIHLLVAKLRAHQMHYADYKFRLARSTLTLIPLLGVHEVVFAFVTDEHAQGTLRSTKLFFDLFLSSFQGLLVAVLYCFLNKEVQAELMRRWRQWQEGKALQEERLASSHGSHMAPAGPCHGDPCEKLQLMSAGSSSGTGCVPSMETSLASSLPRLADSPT

B1: compound of SEQ ID NO: 2 (peptide)
peptide: YSQGTFTSDYSKYLD[Aib]KKAQEFVEWLLKTGPSSGAPPKSK-NH2
modifications: also: acetate salt
notes: Synthetic peptide made on Rink amide resin; acetate salt
Take B1: the Ki in test [1] was found to be 532 nM; in test [3], 2540 nM; in test [4], 1.82 nM; in test [5] it was 0.286 nM. The “EC50, hGR stimulated cAMP functional assay (HTRF, hGR-HEK293 cells)” value in test [2] was found to be 0.0203 nM.
